Results: patent US7183387 (Genentech, dated 2007)

T1: human FcγRIIA-Arg131 α subunit extracellular domain-His6-GST fusion (human, UniProt P12318 34-217)
T1 construct: extracellular domain; also called FcγRIIA-R131; not shown: glutathione S transferase (GST)
T1 sequence: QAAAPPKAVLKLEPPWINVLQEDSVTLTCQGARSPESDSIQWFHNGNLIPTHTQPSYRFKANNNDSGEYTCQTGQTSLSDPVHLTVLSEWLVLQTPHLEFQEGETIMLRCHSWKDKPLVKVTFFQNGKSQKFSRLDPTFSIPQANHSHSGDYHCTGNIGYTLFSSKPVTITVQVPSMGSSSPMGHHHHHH

T2: human FcγRIIA-R131 α subunit extracellular domain-6His-GST fusion (human, UniProt P12318 34-217)
T2 construct: also called FcγRIIA-Arg131; not shown: glutathione S-transferase (GST)
T2 sequence: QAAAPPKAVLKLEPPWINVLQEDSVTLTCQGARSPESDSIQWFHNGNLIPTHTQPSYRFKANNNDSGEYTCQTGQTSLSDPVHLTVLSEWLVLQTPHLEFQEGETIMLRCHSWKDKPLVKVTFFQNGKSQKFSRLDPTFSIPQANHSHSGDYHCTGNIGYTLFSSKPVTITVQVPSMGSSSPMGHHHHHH

T3: human FcγRIIB α subunit extracellular domain-6His-GST fusion (human, UniProt P31994 43-217)
T3 construct: not shown: glutathione S-transferase (GST)
T3 sequence: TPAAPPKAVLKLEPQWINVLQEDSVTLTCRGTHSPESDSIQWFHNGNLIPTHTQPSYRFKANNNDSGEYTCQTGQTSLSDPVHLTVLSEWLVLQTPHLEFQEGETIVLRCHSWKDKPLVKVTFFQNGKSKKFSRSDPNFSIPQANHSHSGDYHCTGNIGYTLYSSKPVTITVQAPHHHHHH


Experiments:
[1] = biological target: T1, human FcγRIIA-Arg131 α subunit …; assay: hexamer ELISA
[2] = biological target: T4, human FcγRIIIA-Phe158 α subunit extracellular domain-His6-GST fusion (human, UniProt P08637 17-208); assay: hexamer ELISA
T4 construct: extracellular domain; also called FcγRIIIA-F158; CD16; not shown: glutathione S transferase (GST)
T4 sequence (P08637 other isoform, or with tags, fused parts or gaps): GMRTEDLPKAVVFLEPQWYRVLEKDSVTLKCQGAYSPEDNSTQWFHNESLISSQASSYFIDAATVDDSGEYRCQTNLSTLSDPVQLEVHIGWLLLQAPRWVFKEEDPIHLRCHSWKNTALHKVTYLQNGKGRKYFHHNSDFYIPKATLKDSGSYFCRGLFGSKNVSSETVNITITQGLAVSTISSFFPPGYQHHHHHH

[3] = biological target: T2, human FcγRIIA-R131 α subunit …; assay: ELISA, IgG:IgE hexamers on receptor-GST
[4] = biological target: T3, human FcγRIIB α subunit extracellular …; assay: ELISA, IgG:IgE hexamers on receptor-GST
[5] = biological target: T5, human FcγRIIIA-F158 α subunit extracellular domain-6His-GST fusion (human, UniProt P08637 17-208); assay: ELISA, IgG:IgE hexamers on receptor-GST
T5 construct: also called FcγRIIIA-Phe158; not shown: glutathione S-transferase (GST)
T5 sequence (P08637 other isoform, or with tags, fused parts or gaps, form in doubt): as the sequence (P08637 other isoform, or with tags, fused parts or gaps) above

[6] = biological target: T6, human FcγRI (FcγRIA) α subunit extracellular domain-His6-GST fusion (human, UniProt P12314 16-292); assay: monomeric IgG; ELISA on receptor-GST and THP-1 cells, averaged
T6 construct: Reported FcγRI values are the average of the plate ELISA on this fusion and of a flow cytometry assay on THP-1 cells; also called GST-FcγRIA; not shown: glutathione S-transferase (GST)
T6 sequence (P12314 other isoform, or with tags, fused parts or gaps, form in doubt): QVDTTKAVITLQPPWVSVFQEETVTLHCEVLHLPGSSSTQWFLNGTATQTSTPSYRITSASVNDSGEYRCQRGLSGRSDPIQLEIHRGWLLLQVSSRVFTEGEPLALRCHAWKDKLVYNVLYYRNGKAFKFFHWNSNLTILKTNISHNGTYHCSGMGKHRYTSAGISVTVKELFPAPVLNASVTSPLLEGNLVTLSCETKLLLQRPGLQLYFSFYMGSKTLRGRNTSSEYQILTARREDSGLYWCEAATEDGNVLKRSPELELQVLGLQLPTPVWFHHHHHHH

[7] = biological target: T7, human FcγRIIIA-Val158 α subunit extracellular domain-His6-GST fusion protein (human, UniProt P08637 17-208); assay: ELISA format, hexameric complex on FcγRIIIA-Val158
T7 construct: ELISA-format target; also called FcγRIIIA-V158; not shown: glutathione S-transferase (GST)
T7 sequence (P08637 other isoform, or with tags, fused parts or gaps, form in doubt): as the sequence (P08637 other isoform, or with tags, fused parts or gaps) above, with F160V counted along it

[8] = biological target: T8, human FcγRIIIA-Phe158 with human γ-chain on stably transfected CHO cells (human, UniProt P08637 17-254; P30273 19-86); assay: flow cytometry, monomeric IgG on CHO cells with FcγRIIIA-Phe158 α- and γ-chains
T8 construct: whole, on cells; CHO cells stably transfected with the α- and γ-chains of the receptor; also called FcγRIIIA-Phe158 (cell-based assay)
T8 sequence (P08637 17-254, chain 1 of 2): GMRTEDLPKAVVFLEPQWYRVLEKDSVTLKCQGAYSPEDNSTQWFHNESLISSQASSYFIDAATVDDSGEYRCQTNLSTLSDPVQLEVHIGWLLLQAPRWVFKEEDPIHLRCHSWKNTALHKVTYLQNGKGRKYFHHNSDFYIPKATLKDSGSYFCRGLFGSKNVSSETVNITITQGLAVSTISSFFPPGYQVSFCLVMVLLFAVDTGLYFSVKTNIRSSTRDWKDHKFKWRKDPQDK
T8 sequence (P30273 19-86, chain 2 of 2): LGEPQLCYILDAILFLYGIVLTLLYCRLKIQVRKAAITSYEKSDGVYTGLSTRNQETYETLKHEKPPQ
Experimental: CHO cell transfection was carried out using Superfect (Qiagen) according to the manufacturer's instructions. […] Receptor expression levels were determined by staining with anti-FcγRIII monoclonal antibody 3G8 (Medarex). Binding of IgG1 variants was performed by adding monomeric IgG in staining buffer to 5×10^5 cells and incubating in 96 well round-bottom tissue culture plates (Costar, Cambridge, Mass.) at 4° C. for 30 min. Cells were washed three times with staining buffer and IgG binding detected by addition of 1:200 PE-F(ab')_2 fragment of goat anti-human IgG and incubation for 30 min at 4° C. After washing, immunofluorescence staining was analyzed on a FACScan flow cytometer using Cellquest software (Becton Dickinson). Dead cells were excluded from analysis by addition of 1 μg/ml propidium iodide.
For FcγRIIIA, the selected variants were assayed in the ELISA-format as well as on stable-transfected CHO cell lines expressing the γ-chains (FcγRIIIA-Phe158 or FcγRIIIA-Val158) with the associated human α-chain.

[9] = biological target: T9, human FcγRIIIA-Val158 with human γ-chain on stably transfected CHO cells (human, UniProt P08637 17-254; P30273 19-86); assay: flow cytometry, monomeric IgG on CHO cells with FcγRIIIA-Val158 α- and γ-chains
T9 construct: whole, on cells; CHO cells stably transfected with the α- and γ-chains of the receptor; also called FcγRIIIA-Val158 (cell-based assay); FcγRIIIA-V158
T9 sequence (P08637 17-254 F176V, chain 1 of 2): as the sequence (P08637 17-254, chain 1 of 2) above, with F160V counted along it
T9 sequence (P30273 19-86, chain 2 of 2): as the sequence (P30273 19-86, chain 2 of 2) above

[10] = biological target: T10, human FcγRIIIA-Phe158 α subunit extracellular domain-His6-GST fusion protein (human, UniProt P08637 17-208); assay: ELISA, IgG:IgE hexamer on coated FcγRIIIA-Phe158-GST; value carried over from Table 6
T10 construct: ELISA-format target; also called FcγRIIIA-F158; not shown: glutathione S-transferase (GST)
T10 sequence (P08637 other isoform, or with tags, fused parts or gaps, form in doubt): as the sequence (P08637 other isoform, or with tags, fused parts or gaps) above

[11] = biological target: T10, human FcγRIIIA-Phe158 α subunit …; assay: ELISA format, hexameric complex on FcγRIIIA-Phe158; separate assays run together with the Val158 assays

Row | Binder | reduction in binding against native IgG1 [1] | reduction in binding against native IgG1 [2] | ratio to native IgG1 [3] | ratio to native IgG1 [4] | ratio to native IgG1 [5] | ratio to native IgG1 [6] | ratio of binding of the variant to that of native IgG1 [7] | ratio of binding of the variant to that of native IgG1 [8] | ratio of binding of the variant to that of native IgG1 [9] | ratio of binding of the variant to that of native IgG1 [10] | ratio of binding of the variant to that of native IgG1 [11]
1 | anti-IgE E27 IgG1 Arg416 changed to Ala (antibody, named only by its position) heavy: not shown light: DIQLTQSPSSLSASVGDRVTITCRASKPVDGEGDSYLNWYQQKPGKAPKLLIYAASYLESGVPSRFSGSGSGTDFTLTISSLQPEDFATYYCQQSHEDPYTFGQGTKVEIKRTVAAPSVFIFPPSDEQLKSGTASVVCLLNNFYPREAKVQWKVDNALQSGNSQESVTEQDSKDSTYSLSSTLTLSKADYEKHKVYACEVTHQGLSSPVTKSFNRGEC | 30% | 30% | – | – | – | – | – | – | – | – | –
2 | E27 IgG1 variant K334(353)M (antibody, also called IG2 190) heavy: not shown light: DIQLTQSPSSLSASVGDRVTITCRASKPVDGEGDSYLNWYQQKPGKAPKLLIYAASYLESGVPSRFSGSGSGTDFTLTISSLQPEDFATYYCQQSHEDPYTFGQGTKVEIKRTVAAPSVFIFPPSDEQLKSGTASVVCLLNNFYPREAKVQWKVDNALQSGNSQESVTEQDSKDSTYSLSSTLTLSKADYEKHKVYACEVTHQGLSSPVTKSFNRGEC | – | – | 0.99 | 0.93 | 0.49 | 1.18 | – | – | – | – | –
3 | anti-IgE E27 IgG1 variant Glu333Ala (antibody, also called E352A) heavy: not shown light: DIQLTQSPSSLSASVGDRVTITCRASKPVDGEGDSYLNWYQQKPGKAPKLLIYAASYLESGVPSRFSGSGSGTDFTLTISSLQPEDFATYYCQQSHEDPYTFGQGTKVEIKRTVAAPSVFIFPPSDEQLKSGTASVVCLLNNFYPREAKVQWKVDNALQSGNSQESVTEQDSKDSTYSLSSTLTLSKADYEKHKVYACEVTHQGLSSPVTKSFNRGEC | – | – | – | – | – | – | 1.06 ratio (variant/native IgG1) | 1.42 ratio (variant/native IgG1) | 1.08 ratio (variant/native IgG1) | 1.27 ratio (variant/native IgG1) | 1.13 ratio (variant/native IgG1)
4 | E27 IgG1 variant K334(353)Y (antibody) heavy: not shown light: DIQLTQSPSSLSASVGDRVTITCRASKPVDGEGDSYLNWYQQKPGKAPKLLIYAASYLESGVPSRFSGSGSGTDFTLTISSLQPEDFATYYCQQSHEDPYTFGQGTKVEIKRTVAAPSVFIFPPSDEQLKSGTASVVCLLNNFYPREAKVQWKVDNALQSGNSQESVTEQDSKDSTYSLSSTLTLSKADYEKHKVYACEVTHQGLSSPVTKSFNRGEC | – | – | 1.08 | 1.05 | 1.31 | 1.15 | – | – | – | – | –
5 | anti-IgE E27 IgG1 variant Lys290Ala (antibody, also called K290(307)A; K307A) heavy: not shown light: DIQLTQSPSSLSASVGDRVTITCRASKPVDGEGDSYLNWYQQKPGKAPKLLIYAASYLESGVPSRFSGSGSGTDFTLTISSLQPEDFATYYCQQSHEDPYTFGQGTKVEIKRTVAAPSVFIFPPSDEQLKSGTASVVCLLNNFYPREAKVQWKVDNALQSGNSQESVTEQDSKDSTYSLSSTLTLSKADYEKHKVYACEVTHQGLSSPVTKSFNRGEC | – | – | – | – | – | – | 1.01 ratio (variant/native IgG1) | 1.61 ratio (variant/native IgG1) | 0.89 ratio (variant/native IgG1) | 1.31 ratio (variant/native IgG1) | 1.15 ratio (variant/native IgG1)
6 | anti-IgE E27 IgG1 variant Asp265Ala (antibody, also called D278A) heavy: not shown light: DIQLTQSPSSLSASVGDRVTITCRASKPVDGEGDSYLNWYQQKPGKAPKLLIYAASYLESGVPSRFSGSGSGTDFTLTISSLQPEDFATYYCQQSHEDPYTFGQGTKVEIKRTVAAPSVFIFPPSDEQLKSGTASVVCLLNNFYPREAKVQWKVDNALQSGNSQESVTEQDSKDSTYSLSSTLTLSKADYEKHKVYACEVTHQGLSSPVTKSFNRGEC | – | – | – | – | – | – | 0.02 ratio (variant/native IgG1) | 0.12 ratio (variant/native IgG1) | 0.05 ratio (variant/native IgG1) | 0.09 ratio (variant/native IgG1) | 0.05 ratio (variant/native IgG1)
7 | anti-IgE E27 IgG1 variant Pro331Ala (antibody, also called P331(350)A; IG2 65) heavy: not shown light: DIQLTQSPSSLSASVGDRVTITCRASKPVDGEGDSYLNWYQQKPGKAPKLLIYAASYLESGVPSRFSGSGSGTDFTLTISSLQPEDFATYYCQQSHEDPYTFGQGTKVEIKRTVAAPSVFIFPPSDEQLKSGTASVVCLLNNFYPREAKVQWKVDNALQSGNSQESVTEQDSKDSTYSLSSTLTLSKADYEKHKVYACEVTHQGLSSPVTKSFNRGEC | – | – | – | – | – | – | 0.97 ratio (variant/native IgG1) | 0.94 ratio (variant/native IgG1) | 0.88 ratio (variant/native IgG1) | 1.08 ratio (variant/native IgG1) | 1 ratio (variant/native IgG1)
8 | anti-IgE E27 IgG1 variant Lys334Ala (antibody, also called K353A) heavy: not shown light: DIQLTQSPSSLSASVGDRVTITCRASKPVDGEGDSYLNWYQQKPGKAPKLLIYAASYLESGVPSRFSGSGSGTDFTLTISSLQPEDFATYYCQQSHEDPYTFGQGTKVEIKRTVAAPSVFIFPPSDEQLKSGTASVVCLLNNFYPREAKVQWKVDNALQSGNSQESVTEQDSKDSTYSLSSTLTLSKADYEKHKVYACEVTHQGLSSPVTKSFNRGEC | – | – | – | – | – | – | 1.1 ratio (variant/native IgG1) | 2.46 ratio (variant/native IgG1) | 1.26 ratio (variant/native IgG1) | 1.39 ratio (variant/native IgG1) | 1.39 ratio (variant/native IgG1)
9 | E27 IgG1 variant K334(353)W (antibody) heavy: not shown light: DIQLTQSPSSLSASVGDRVTITCRASKPVDGEGDSYLNWYQQKPGKAPKLLIYAASYLESGVPSRFSGSGSGTDFTLTISSLQPEDFATYYCQQSHEDPYTFGQGTKVEIKRTVAAPSVFIFPPSDEQLKSGTASVVCLLNNFYPREAKVQWKVDNALQSGNSQESVTEQDSKDSTYSLSSTLTLSKADYEKHKVYACEVTHQGLSSPVTKSFNRGEC | – | – | 0.94 | 0.91 | 1.07 | 1.16 | – | – | – | – | –
